Assay results: US20260209386A1 (MYTHIC THERAPEUTICS, published 2026)

T1: Human PTK7/CCK4 Protein, His Tag, Acro Biosystems PT7-H52H3 (human, UniProt Q13308 31-704)
T1 construct: bought protein; also called Human PTK7 Protein, His Tag, Acro Biosystems; not shown: His tag
T1 sequence: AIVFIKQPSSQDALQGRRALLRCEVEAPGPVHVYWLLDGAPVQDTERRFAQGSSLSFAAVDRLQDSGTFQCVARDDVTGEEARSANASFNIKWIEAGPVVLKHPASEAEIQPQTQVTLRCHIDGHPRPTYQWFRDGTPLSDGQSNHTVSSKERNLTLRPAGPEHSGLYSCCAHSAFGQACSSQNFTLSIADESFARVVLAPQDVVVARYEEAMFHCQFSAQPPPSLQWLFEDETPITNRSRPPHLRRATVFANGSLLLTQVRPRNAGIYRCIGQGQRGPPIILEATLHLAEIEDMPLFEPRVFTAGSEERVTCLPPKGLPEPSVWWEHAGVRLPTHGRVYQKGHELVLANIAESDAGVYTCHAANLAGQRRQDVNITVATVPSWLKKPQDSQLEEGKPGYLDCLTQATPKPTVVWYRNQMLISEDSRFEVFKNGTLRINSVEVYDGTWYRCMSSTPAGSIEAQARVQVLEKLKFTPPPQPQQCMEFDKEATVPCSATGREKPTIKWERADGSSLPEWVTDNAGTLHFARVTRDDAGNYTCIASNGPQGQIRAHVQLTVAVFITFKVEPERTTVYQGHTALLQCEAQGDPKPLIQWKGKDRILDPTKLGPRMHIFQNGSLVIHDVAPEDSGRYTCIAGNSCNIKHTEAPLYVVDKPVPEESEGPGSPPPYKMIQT

T2: Human PTK7 Protein, His Tag (Acro Biosystems) (human, UniProt Q13308 31-704)
T2 construct: Bought recombinant protein; also called CCK4; tyrosine-protein kinase-like 7; not shown: His tag
T2 sequence: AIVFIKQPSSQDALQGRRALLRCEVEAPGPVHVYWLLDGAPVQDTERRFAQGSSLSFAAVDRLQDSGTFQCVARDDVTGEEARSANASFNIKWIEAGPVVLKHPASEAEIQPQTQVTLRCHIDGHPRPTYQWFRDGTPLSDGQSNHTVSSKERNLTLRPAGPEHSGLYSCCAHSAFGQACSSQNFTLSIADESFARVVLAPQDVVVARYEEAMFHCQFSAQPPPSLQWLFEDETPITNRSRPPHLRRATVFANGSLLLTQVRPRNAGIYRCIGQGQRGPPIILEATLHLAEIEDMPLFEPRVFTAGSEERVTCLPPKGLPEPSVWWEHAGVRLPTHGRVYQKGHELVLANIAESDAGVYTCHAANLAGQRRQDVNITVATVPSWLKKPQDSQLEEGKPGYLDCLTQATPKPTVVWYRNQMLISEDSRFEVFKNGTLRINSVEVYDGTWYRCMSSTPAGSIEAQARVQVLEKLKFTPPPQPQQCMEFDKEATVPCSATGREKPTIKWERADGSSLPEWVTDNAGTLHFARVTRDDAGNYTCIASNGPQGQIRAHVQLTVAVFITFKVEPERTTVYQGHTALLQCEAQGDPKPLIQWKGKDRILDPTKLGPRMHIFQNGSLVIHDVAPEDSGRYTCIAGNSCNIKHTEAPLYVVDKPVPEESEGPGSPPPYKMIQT


Columns and labels:
[1] = biological target: T1, Human PTK7/CCK4 Protein, His Tag, Acro …; assay: BLI, antibody on anti-human Fc sensor
[2] = biological target: T2, Human PTK7 Protein, His Tag (Acro …); assay: BLI, antibody on anti-human Fc sensor, 50 nM PTK7 at pH 7.4, dissociation at pH 7.4 or 5.4; 1 = pH dependent binding relative to parent

Binder | binding result [1] | binding result [2]
MYT6231 (antibody, V domains shown, IgG) VH: QVQLVESGGGVVQPGRSLRLSCAASGFTFSSHGMHWVRQAPGKGLEWVAVIWDDGSNKYYVDSVKGRFTISRDNSKNTLYLQMNSLRAEDTAVYYCARDDYYGSGSFNSYYGTDVWGQGTTVTVSS VL: EIVLTQSPATLSLSPGERATLSCRASQSVSIYLAWYQQKPGQAPRLLIYDASNRATGIPARFSGSGSGTDFTLTISSLEPEDFAVYYCQQRSNWPPFTFGPGTKVDIK | no binding (tested: 50 nM PTK7) | –
MYT6267 (antibody, V domains shown, IgG) VH: QVQLVESGGGVVQPGRSLRLSCAASGFTFSSYGMHWVRQAPGKGLEWVAVIWDDGSNKYYVDSVKGRFTISRDNSKNTLYLQMNSLRAEDTAVYYCARDDYYGSGSFNSYYHTDVWGQGTTVTVSS VL: EIVLTQSPATLSLSPGERATLSCRASQSVSIYLAWYQQKPGQAPRLLIYDASNRATGIPARFSGSGSGTDFTLTISSLEPEDFAVYYCQQRSNWPPFTFGPGTKVDIK | no binding (tested: 50 nM PTK7) | –
MYT6255 (antibody, V domains shown, IgG) VH: QVQLVESGGGVVQPGRSLRLSCAASGFTFSSYGMHWVRQAPGKGLEWVAVIWDDGSNKYYVDSVKGRFTISRDNSKNTLYLQMNSLRAEDTAVYYCARDHYYGSGSFNSYYGTDVWGQGTTVTVSS VL: EIVLTQSPATLSLSPGERATLSCRASQSVSIYLAWYQQKPGQAPRLLIYDASNRATGIPARFSGSGSGTDFTLTISSLEPEDFAVYYCQQRSNWPPFTFGPGTKVDIK | no binding (tested: 50 nM PTK7) | –
MYT6232 (antibody, V domains shown, IgG) VH: QVQLVESGGGVVQPGRSLRLSCAASGFTFSSYHMHWVRQAPGKGLEWVAVIWDDGSNKYYVDSVKGRFTISRDNSKNTLYLQMNSLRAEDTAVYYCARDDYYGSGSFNSYYGTDVWGQGTTVTVSS VL: EIVLTQSPATLSLSPGERATLSCRASQSVSIYLAWYQQKPGQAPRLLIYDASNRATGIPARFSGSGSGTDFTLTISSLEPEDFAVYYCQQRSNWPPFTFGPGTKVDIK | no binding (tested: 50 nM PTK7) | –
MYT6268 (antibody, V domains shown, IgG) VH: QVQLVESGGGVVQPGRSLRLSCAASGFTFSSYGMHWVRQAPGKGLEWVAVIWDDGSNKYYVDSVKGRFTISRDNSKNTLYLQMNSLRAEDTAVYYCARDDYYGSGSFNSYYGHDVWGQGTTVTVSS VL: EIVLTQSPATLSLSPGERATLSCRASQSVSIYLAWYQQKPGQAPRLLIYDASNRATGIPARFSGSGSGTDFTLTISSLEPEDFAVYYCQQRSNWPPFTFGPGTKVDIK | no binding (tested: 50 nM PTK7) | –
MYT6256 (antibody, V domains shown, IgG) VH: QVQLVESGGGVVQPGRSLRLSCAASGFTFSSYGMHWVRQAPGKGLEWVAVIWDDGSNKYYVDSVKGRFTISRDNSKNTLYLQMNSLRAEDTAVYYCARDDHYGSGSFNSYYGTDVWGQGTTVTVSS VL: EIVLTQSPATLSLSPGERATLSCRASQSVSIYLAWYQQKPGQAPRLLIYDASNRATGIPARFSGSGSGTDFTLTISSLEPEDFAVYYCQQRSNWPPFTFGPGTKVDIK | no binding (tested: 50 nM PTK7) | –
MYT6244 (antibody, V domains shown, IgG) VH: QVQLVESGGGVVQPGRSLRLSCAASGFTFSSYGMHWVRQAPGKGLEWVAVIWDDGSNKHYVDSVKGRFTISRDNSKNTLYLQMNSLRAEDTAVYYCARDDYYGSGSFNSYYGTDVWGQGTTVTVSS VL: EIVLTQSPATLSLSPGERATLSCRASQSVSIYLAWYQQKPGQAPRLLIYDASNRATGIPARFSGSGSGTDFTLTISSLEPEDFAVYYCQQRSNWPPFTFGPGTKVDIK | no binding (tested: 50 nM PTK7) | –
MYT6269 (antibody, V domains shown, IgG) VH: QVQLVESGGGVVQPGRSLRLSCAASGFTFSSYGMHWVRQAPGKGLEWVAVIWDDGSNKYYVDSVKGRFTISRDNSKNTLYLQMNSLRAEDTAVYYCARDDYYGSGSFNSYYGTHVWGQGTTVTVSS VL: EIVLTQSPATLSLSPGERATLSCRASQSVSIYLAWYQQKPGQAPRLLIYDASNRATGIPARFSGSGSGTDFTLTISSLEPEDFAVYYCQQRSNWPPFTFGPGTKVDIK | no binding (tested: 50 nM PTK7) | –
MYT6253 (antibody, V domains shown, IgG) VH: QVQLVESGGGVVQPGRSLRLSCAASGFTFSSYGMHWVRQAPGKGLEWVAVIWDDGSNKYYVDSVKGRFTISRDNSKNTLYLQMNSLRAEDTAVYYCAHDDYYGSGSFNSYYGTDVWGQGTTVTVSS VL: EIVLTQSPATLSLSPGERATLSCRASQSVSIYLAWYQQKPGQAPRLLIYDASNRATGIPARFSGSGSGTDFTLTISSLEPEDFAVYYCQQRSNWPPFTFGPGTKVDIK | no binding (tested: 50 nM PTK7) | –
MYT6254 (antibody, V domains shown, IgG) VH: QVQLVESGGGVVQPGRSLRLSCAASGFTFSSYGMHWVRQAPGKGLEWVAVIWDDGSNKYYVDSVKGRFTISRDNSKNTLYLQMNSLRAEDTAVYYCARHDYYGSGSFNSYYGTDVWGQGTTVTVSS VL: EIVLTQSPATLSLSPGERATLSCRASQSVSIYLAWYQQKPGQAPRLLIYDASNRATGIPARFSGSGSGTDFTLTISSLEPEDFAVYYCQQRSNWPPFTFGPGTKVDIK | no binding (tested: 50 nM PTK7) | –
MYT11349 (antibody, V domains shown, MYT9797 HC variant; captured via anti-human Fc) VH: EVQLVESGGGLVQPGGSLRLSCTASGIDLSNYAVIWVRQAPGKGLEWVGHIYTYDTTYYANWAKGRFTISRDTSKNTVYLQMNSLRAEDTAVYFCARSFSDISDLIKLWGQGTLVTVSS VL: EIVMTQSPSTLSASVGDRVIITCQASQSLYNNKDLAWYQQKPGKAPKLLIYEASKLASGVPSRFSGSGSGAEFTLTISSLQPDDFATYYCLGEFSCGSGDCLAFGQGTKLTVL | – | binds
MYT11352 (antibody, V domains shown, MYT9797 HC variant; captured via anti-human Fc) VH: EVQLVESGGGLVQPGGSLRLSCTASGIDLSNYAVIWVRQAPGKGLEWVGIIYHYDTTYYANWAKGRFTISRDTSKNTVYLQMNSLRAEDTAVYFCARSFSDISDLIKLWGQGTLVTVSS VL: EIVMTQSPSTLSASVGDRVIITCQASQSLYNNKDLAWYQQKPGKAPKLLIYEASKLASGVPSRFSGSGSGAEFTLTISSLQPDDFATYYCLGEFSCGSGDCLAFGQGTKLTVL | – | binds
MYT6190 (antibody, V domains shown, IgG) VH: QVQLVQSGPEVKKPGASVKVSCKASGYTFTDYAVHWVRQAPGKRLEWIGVISTYNDYTYNNQDFKGRVTMTRDTSASTAYMELSRLRSEDTAVYYCARGNSYFYHLDYWGQGTSVTVSS VL: EIVLTQSPATLSLSPGERATLSCRASESVDSYGKSFMHWYQQKPGQAPRLLIYRASNLESGIPARFSGSGSGTDFTLTISSLEPEDFAVYYCQQSNEDPWTFGGGTKLEIK | no binding (tested: 50 nM PTK7) | –
MYT6218 (antibody, V domains shown, IgG) VH: QVQLVQSGPEVKKPGASVKVSCKASGYTFTDYAVHWVRQAPGKRLEWIGVISTYNDYTYNNQDFKGRVTMTRDTSASTAYMELSRLRSEDTAVYYCARGNSYFYALDYWGQGTSVTVSS VL: EIVLTQSPATLSLSPGERATLSCRASESVDSYGKSFMHWYQQKPGQAPRLLIYRASNLESGIPARFSGSGSGTDFTLTISSLEPEDFAVYYCQQHNEDPWTFGGGTKLEIK | no binding (tested: 50 nM PTK7) | –
MYT6206 (antibody, V domains shown, IgG) VH: QVQLVQSGPEVKKPGASVKVSCKASGYTFTDYAVHWVRQAPGKRLEWIGVISTYNDYTYNNQDFKGRVTMTRDTSASTAYMELSRLRSEDTAVYYCARGNSYFYALDYWGQGTSVTVSS VL: EIVLTQSPATLSLSPGERATLSCRASESVDSYGKSHMHWYQQKPGQAPRLLIYRASNLESGIPARFSGSGSGTDFTLTISSLEPEDFAVYYCQQSNEDPWTFGGGTKLEIK | no binding (tested: 50 nM PTK7) | –
MYT6210 (antibody, V domains shown, IgG) VH: QVQLVQSGPEVKKPGASVKVSCKASGYTFTDYAVHWVRQAPGKRLEWIGVISTYNDYTYNNQDFKGRVTMTRDTSASTAYMELSRLRSEDTAVYYCARGNSYFYALDYWGQGTSVTVSS VL: EIVLTQSPATLSLSPGERATLSCRASESVDSYGKSFMHWYQQKPGQAPRLLIYRHSNLESGIPARFSGSGSGTDFTLTISSLEPEDFAVYYCQQSNEDPWTFGGGTKLEIK | no binding (tested: 50 nM PTK7) | –
MYT6209 (antibody, V domains shown, IgG) VH: QVQLVQSGPEVKKPGASVKVSCKASGYTFTDYAVHWVRQAPGKRLEWIGVISTYNDYTYNNQDFKGRVTMTRDTSASTAYMELSRLRSEDTAVYYCARGNSYFYALDYWGQGTSVTVSS VL: EIVLTQSPATLSLSPGERATLSCRASESVDSYGKSFMHWYQQKPGQAPRLLIYHASNLESGIPARFSGSGSGTDFTLTISSLEPEDFAVYYCQQSNEDPWTFGGGTKLEIK | no binding (tested: 50 nM PTK7) | –
MYT6221 (antibody, V domains shown, IgG) VH: QVQLVQSGPEVKKPGASVKVSCKASGYTFTDYAVHWVRQAPGKRLEWIGVISTYNDYTYNNQDFKGRVTMTRDTSASTAYMELSRLRSEDTAVYYCARGNSYFYALDYWGQGTSVTVSS VL: EIVLTQSPATLSLSPGERATLSCRASESVDSYGKSFMHWYQQKPGQAPRLLIYRASNLESGIPARFSGSGSGTDFTLTISSLEPEDFAVYYCQQSNEHPWTFGGGTKLEIK | no binding (tested: 50 nM PTK7) | –
